According to patent US20150118700:

T1: α-fructosyl hexapeptide (α-fructosyl-valyl-histidyl-leucyl-threonyl-propyl-glutamic acid)
T1 chain: VHLTPE

T2: α-fructosyl valyl histidine
T2 chain: VH

B1: CFP-T7-H21 (protein)
chain: MTSNRADTRVIVVGGGGTIGSSTALHLVRSGYAPANITVLDTFEIPSAQSAGHDLNKIMGIDLRNKVDLQMSLEARQMWKEDELFQPFFHNTGRMDCEHTPEGIEKLKKLYQRLHDAGAGLEKTHAWLDNEDEILSKMPLLQRDQIQGWKAIWSQDGGWLAAAKAINAIGQFLKERGVKFGFGGAGSFKQPLFDDEGTTCIGVETADGTKYYADKVVLAAGAWSPTLVDLEDQCCSKAWVYAHIQLTPEEAAEYKGVPVVYNGEFGFFFEPDEFGVIKVCDEFPGFSRFKEHQPYGAPSPKRISVPRSHAKHPTDTYPDASEVSIKKAIATFLPRFQDKELFNRALCWCTDTADAALLMCEHPKWKNFILATGDSGHSFKILPNVGKYVVELIEGRLPEEMAYQWRWRPGGDALKSRRAAPPKDLADMPGWKHDPKL
B2: CFP-T7-H35 (protein)
chain: MTSNRADTRVIVVGGGGTIGSSTALHLVRSGYAPANITVLDTFEIPSAQSAGHDLNKIMGIDHRNKVDLQMSLEARQMWKEDELFQPFFHNTGRMDCEHTPKGIEKLKKLYQKLHDAGAGLEKTHAWLDNEDEILSKMPLLQRDQIQGWKAIWSQDGGWLAAAKAINAIGQFLKERGVKFGFGGAGSFKQPLFDDEGTTCIGVETADGTKYYADKVVLAAGAWSPTLVDLEDQCCSKAWVYAHIQLTPEEAAEYKGVPVVYNGEFGFFFEPDEFGVIKVCDEFPGFSRFKEHQPYGAPSPKRISVPRSHAKHPTDTYPDASEVSIKKAIATFLPRFQDKELFNRALCWCTDTADSALLMCEHPKWKNFILATGDSGHSFKILPNVGKYVVELIEGRLPEEMAYQWRWRPGGDALKSRRAAPPKDLADMPGWKHDPKL
B3: CFP-T7-62D (protein)
chain: MTSNRADTRVIVVGGGGTIGSSTALHLVRSGYAPANITVLDTFEIPSAQSAGHDLNKIMGIDLRNKVDLQMSLEARQMWKEDELFQPFFHNTGRMDCEHTPEGIEDLKKQYQALHDAGAGLEKTHAWLDNEDEILSKMPLLQRDQIQGWKAIWSQDGGWLAAAKAINAIGQFLKERGVKFGFGGAGSFKQPLFDDEGTTCIGVETADGTKYYADKVVLAAGAWSPTLVDLEDQCCSKAWVYAHIQLTPEEAAEYKGVPVVYNGEFGFFFEPDEFGVIKVCDEFPGFSRFKEHQPYGAPSPKRISVPRSHAKHPTDTYPDASEVSIKKAIATFLPRFQDKELFNRALCWCTDTADAALLMCEHPKWKNFILATGDSGHSFKILPNVGKYVVELIEGRLPEEMAYQWRWRPGGDALKSRRAAPPKDLADMPGWKHDPKL

How the values were obtained:
[1] = molecular target: T1, α-fructosyl hexapeptide …
[2] = molecular target: T2, α-fructosyl valyl histidine

Protein	Specific activity (U/mg), 1 mM αF6P [1]	αF6P oxidation activity, relative to αFVH oxidation activity designated to be 100 (relative (αFVH = 100)) [1]	Specific activity (U/mg), 1 mM αFVH [2]	specific activity on αF6P, fold over FAOAo2 (Present Invention 25/Comparative Example 2) [1]	ΔA at 751 nm (hydrogen peroxide generated upon oxidation of αF6P) against αF6P concentration [1]	αF6P oxidation activity ratio, relative to CFP-T7-H28 = 100 as the table shows (relative (CFP-T7-H28 = 100)) [1]	specific activity on αF6P, fold over PnFX (Present Invention 26/Comparative Example 3) [1]
B1	0.795 U/mg	20.8	4.05 U/mg	–	–	–	–
B2	4.27 U/mg	–	1.9 U/mg	2 times (Present Invention 26/Comparative Example 3) to 1,940 times (Present Invention 25/Comparative Example 2) greater	a favorable correlation was developed between ΔA and αF6P concentration in the range of αF6P concentration from 0.5 µM to 10 µM	206	–
B3	0.018 U/mg	–	1.62 U/mg	–	–	–	2 times (Present Invention 26/Comparative Example 3) to 1,940 times (Present Invention 25/Comparative Example 2) greater
